Patent US6858210B1, “Therapeutic and diagnostic domain 1 β2GPI polypeptides and methods of using same” (La Jolla Pharmaceutical Co., priority 1998, dated 2005)
Where two headings read alike, the source gives them in different places.

B1: --345: recombinant β2GPI deletion mutant with domains 3, 4, 5 (protein)
chain: GRIICPPPSIPTFATLRVYKPSAGNNSLYRDTAVFECLPQHAMFGNDTITCTTHGNWTKLPECREVKCPFPSRPDNGFVNYPAKPTLYYKDKATFGCHDGYSLDGPEEIECTKLGNWSAMPSCKASCKLPVKKATVVYQGERVKIQEKFKNGMLHGDKVSFFCKNKEKKCSYTEDAQCIDGTIEVPKCFKEHSSLAFWKTDASDVKPCGHHHHHH
B2: 1234-: recombinant β2GPI deletion mutant with domains 1, 2, 3, 4 (protein)
chain: GRTCPKPDDLPFSTVVPLKTFYEPGEEITYSCKPGYVSRGGMRKFICPLTGLWPINTLKCTPRVCPFAGILENGAVRYTTFEYPNTISFSCNTGFYLNGADSAKCTEEGKWSPELPVCAPIICPPPSIPTFATLRVYKPSAGNNSLYRDTAVFECLPQHAMFGNDTITCTTHGNWTKLPECREVKCPFPSRPDNGFVNYPAKPTLYYKDKATFGCHDGYSLDGPEEIECTKLGNWSAMPSCGHHHHHH

Key:
[1] = tested on: affinity purified β2GPI-dependent antiphospholipid antibody; test: Competitive inhibition ELISA: recombinant β2GPI proteins compete for antibody binding to coated full length recombinant β2GPI; set-up: species or system human; conditions: for IC50: read-out: 50% (concentration to give 50% inhibition)
Method: Microtiter plates (MaxiSorp™, Nalge Nunc International, Denmark) were coated with 50 μl of full length recombinant β2GPI at 10 μg/ml in 0.1 M bicarbonate, pH 9.5, incubated overnight at 4° C., washed three times with 0.15 M PBS, pH 7.2, and blocked for one hour at room temperature with 75 μl of 2% Non-fat Dried Milk (Carnation, 2% NFDM). Test inhibitors were diluted in 2% NFDM and 25 μl of each dilution was added to coated wells. Affinity purified β2GPI-dependent antiphospholipid antibody was diluted in 2% NFDM and 25 μl, of a constant concentration, was added to the wells, including a group of wells that had no inhibitor, which acted as the positive controls. The contents of the wells were mixed and the plates were incubated at 37° C. for one hour. The plates were washed three times with PBS, 50 μl of alkaline phosphatase conjugated anti-human IgG, gamma chain specific, (Zymed #62-8422) diluted appropriately in 2% NFDM was added and incubated at 37° C. for one hour. The plates were washed three times with PBS, 50 μl of alkaline phosphatase PPMP chromogenic substrate solution was added and incubated for 30 minutes, at room temperature. The Optical Density, at 550 nm, was determined by reading the plates in a microplate autoreader (Bio-Teck Instruments, model EL3 11). The percent inhibition was determined by dividing the OD550 obtained in the presence of inhibitor by the mean OD550 obtained from the wells without inhibitor and then multiplying by 100 (more particularly, [mean A550 obtained from control wells without inhibitor less A550 of background] minus [A550 obtained in presence of inhibitor less A550 of background] divided by [mean A550 obtained from control wells without inhibitor less A550 of background] times 100).
Seven to nine different recombinant β2GPI mutant proteins were used to determine the antigenic specificity of affinity purified β2GPI-dependent antiphospholipid antibody preparations from 13 different patients. Each mutant recombinant β2GPI protein was tested, in a dose dependent fashion, for its ability to inhibit affinity purified β2GPI-dependent antiphospholipid antibody from binding to full length recombinant β2GPI. The following values were also observed for domain 1 only recombinant protein (1 - - - -; see Table 2 for designations): […]

[2] = tested on: affinity purified β2GPI-dependent antiphospholipid antibody; test: Direct binding ELISA, nickel chelate-coated wells charged with recombinant β2GPI proteins (no cardiolipin); set-up: species or system human; conditions: O.D. at 550 nm
Method: (§1) Nickel Chelate-coated microwell plates (NCP 010 00 Xenopore Corp. 374 Midland Ave. Saddle Brook, N.J. USA) were coated with 50 μl of serial dilutions of the various recombinant β2GPI, in PBS, at room temperature for 2 hours. The plates were washed three times with PBS and blocked with 75 μl of a 1% gelatin (Sigma #G-2500) in PBS for one hour room temperature. […] The plates were washed three times with PBS, 50 μl of alkaline phosphatase conjugated anti-immunoglobulin (anti-human IgG, gamma chain specific, Zymed #62-8422) or anti-rabbit IgG (Zymed #62-6122) diluted appropriately in 1% gelatin was added and incubated at 37° C. for one hour. The plates were washed three times with PBS, 50 μl of alkaline phosphatase PPMP chromogenic substrate solution was added and incubated for 30 minutes at room temperature. The optical density, at 550 nm, was determined by reading the plates in a microplate autoreader (Bio-Teck Instruments, model EL311).
(§2) Seven to nine different recombinant β2GPI mutant proteins were examined to determine if they could support the direct binding of affinity purified β2GPI-dependent antiphospholipid antibody preparations in the absence of anionic phospholipid. All recombinant mutant β2GPI were assayed with affinity purified β2GPI-dependent antiphospholipid antibody preparations from 11 different patients. Each mutant recombinant β2GPI protein was tested, in a dose dependent fashion and GST-6his was included as a negative control. The recombinant mutant β2GPI proteins were bound to nickel coated microtiter plates via their 6-his tail. All recombinant mutant β2GPI proteins tested bound rabbit anti-β2GPI showing that they were assessable by antibody (FIG. 5).

[3] = tested on: rabbit anti-β2GPI; test: Direct binding ELISA, nickel chelate-coated wells, rabbit antibody; conditions: O.D. at 550 nm
Method: as §1, §2

| Molecule | Max (maximum inhibition observed at concentrations tested) ([1]; Ab 6203) [%] | IC50 ([1]; Ab 6203) [µM] | Max (maximum inhibition observed at concentrations tested) ([1]; Ab 6501) [%] | IC50 ([1]; Ab 6501) [µM] | Max (maximum inhibition observed at concentrations tested) ([1]; Ab 6509) [%] | IC50 ([1]; Ab 6509) [µM] | Max (maximum inhibition observed at concentrations tested) ([1]; Ab 6626) [%] | IC50 ([1]; Ab 6626) [µM] | Max (maximum inhibition observed at concentrations tested) ([1]; Ab 6632) [%] | IC50 ([1]; Ab 6632) [µM] | Max (maximum inhibition observed at concentrations tested) ([1]; Ab 6641) [%] | IC50 ([1]; Ab 6641) [µM] | Max (maximum inhibition observed at concentrations tested) ([1]; Ab 6644) [%] | IC50 ([1]; Ab 6644) [µM] | Max (maximum inhibition observed at concentrations tested) ([1]; Ab 6652) [%] | IC50 ([1]; Ab 6652) [µM] | Max (maximum inhibition observed at concentrations tested) ([1]; Ab 6701) [%] | IC50 ([1]; Ab 6701) [µM] | Max (maximum inhibition observed at concentrations tested) ([1]; Ab 7008) [%] | IC50 ([1]; Ab 7008) [µM] | further results |
| --- | --- | --- | --- | --- | --- | --- | --- | --- | --- | --- | --- | --- | --- | --- | --- | --- | --- | --- | --- | --- | --- |
| B1 | 10 | > 50 | 15 | > 50 | 20 | > 15 | 20 | > 50 | 20 | > 50 | 10 | > 15 | 10 | > 50 | 30 | > 15 | 20 | > 15 | 20 | > 50 | Max (maximum inhibition observed at concentrations tested) ([1]; Ab 7015): 10%; IC50 ([1]; Ab 7015): > 50 µM; Max (maximum inhibition observed at concentrations tested) ([1]; Ab 7101): 5%; IC50 ([1]; Ab 7101): > 50 µM; Max (maximum inhibition observed at concentrations tested) ([1]; Ab 7104): 20%; IC50 ([1]; Ab 7104): > 50 µM; Maximum O.D. ([2]; Ab 6203): 0.072; Maximum O.D. ([2]; Ab 6501): 0.030; Maximum O.D. ([2]; Ab 6626): 0.022; Maximum O.D. ([2]; Ab 6632): 0.004; Maximum O.D. ([2]; Ab 6641): 0.019; Maximum O.D. ([2]; Ab 6644): 0.048; Maximum O.D. ([2]; Ab 6652): 0.016; Maximum O.D. ([2]; Ab 6701): 0.002; Maximum O.D. ([2]; Ab 7008): 0.018; Maximum O.D. ([2]; Ab 7015): 0.042; Maximum O.D. ([2]; Ab 7101): 0.042; Maximum O.D. [3]: 1.993 |
| B2 | 30 | > 8 | 30 | > 8 | 80 | 3 | 40 | > 8 | 60 | 2 | 60 | 2 | 50 | 8 | 100 | 0.5 | 30 | > 8 | 50 | > 8 | Max (maximum inhibition observed at concentrations tested) ([1]; Ab 7015): 50%; IC50 ([1]; Ab 7015): 8 µM; Max (maximum inhibition observed at concentrations tested) ([1]; Ab 7101): 20%; IC50 ([1]; Ab 7101): > 8 µM; Max (maximum inhibition observed at concentrations tested) ([1]; Ab 7104): 90%; IC50 ([1]; Ab 7104): 0.7 µM; Maximum O.D. ([2]; Ab 6203): 0.668; Maximum O.D. ([2]; Ab 6501): 0.628; Maximum O.D. ([2]; Ab 6626): 0.563; Maximum O.D. ([2]; Ab 6632): 0.003; Maximum O.D. ([2]; Ab 6641): 0.145; Maximum O.D. ([2]; Ab 6644): 0.768; Maximum O.D. ([2]; Ab 6652): 0.135; Maximum O.D. ([2]; Ab 6701): 0.715; Maximum O.D. ([2]; Ab 7008): 0.149; Maximum O.D. ([2]; Ab 7015): 0.454; Maximum O.D. ([2]; Ab 7101): 0.843; Maximum O.D. [3]: 1.708 |
